According to patent WO2012010582A1:

Target: human CXCR5 (human) (UniProt P32302)
Assay: cell-based or functional assay

Chain of UniProt P32302 (P32302 whole entry): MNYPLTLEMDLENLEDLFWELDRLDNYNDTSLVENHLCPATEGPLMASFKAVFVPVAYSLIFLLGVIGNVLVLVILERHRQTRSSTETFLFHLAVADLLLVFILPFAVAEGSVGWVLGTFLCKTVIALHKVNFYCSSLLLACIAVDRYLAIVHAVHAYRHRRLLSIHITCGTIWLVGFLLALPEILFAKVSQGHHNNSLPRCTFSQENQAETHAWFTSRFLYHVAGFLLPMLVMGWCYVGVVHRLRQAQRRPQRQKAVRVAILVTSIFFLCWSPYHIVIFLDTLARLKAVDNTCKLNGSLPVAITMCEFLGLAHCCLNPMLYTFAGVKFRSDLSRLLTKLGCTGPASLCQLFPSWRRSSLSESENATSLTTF

Ca-flux (FLU) at 0 nM rhCXCL13 (baseline): 1680 FLU
Ca-flux (FLU) at 1.95 nM rhCXCL13: 2220 FLU
Ca-flux (FLU) at 3.91 nM rhCXCL13: 1840 FLU
Ca-flux (FLU) at 7.81 nM rhCXCL13: 1860 FLU
Ca-flux (FLU) at 16 nM rhCXCL13: 6160 FLU
Ca-flux (FLU) at 31 nM rhCXCL13: 31100 FLU
Ca-flux (FLU) at 63 nM rhCXCL13: 51900 FLU
Ca-flux (FLU) at 125 nM rhCXCL13: 74700 FLU
Ca-flux (FLU) at 250 nM rhCXCL13: 78400 FLU
Ca-flux (FLU) at 500 nM rhCXCL13: 68100 FLU
Substance: human CXCL13 (from UniProt O43927 23-94) (ligand)
